This note sets out measurements from publication PMC5928098, “Association of BrERF72 with methyl jasmonate-induced leaf senescence of Chinese flowering cabbage through activating JA biosynthesis-related genes”.

Data set [1] addresses T1, GST-BrERF72 (Brassica (Chinese flowering cabbage), UniProt M4CBR0 1-245). The data set can be described thus: EMSA; LightShift Chemiluminescent EMSA kit, 6% native PAGE; buffer, salt, pH and temperature not stated. The note with it: protein: recombinant, tags: N-terminal GST (pGEX-4T-1), label: 5' biotin. For orientation: In EMSA bound probe runs differently from free probe, usually more slowly.

Data set [2] has as its target T1, GST-BrERF72. Nature of the data set: competition; unlabeled mutant vs labeled BrLOX4 probe; LightShift Chemiluminescent EMSA kit, 6% native PAGE; buffer, salt, pH and temperature not stated. The note with it: protein: recombinant; tags: N-terminal GST (pGEX-4T-1); blunt.
The target in data set [3] is T1, GST-BrERF72. Nature of the data set: competition; unlabeled mutant vs labeled BrAOC3 probe; LightShift Chemiluminescent EMSA kit, 6% native PAGE; buffer, salt, pH and temperature not stated. The note with it: protein: recombinant; tags: N-terminal GST (pGEX-4T-1); blunt.
Data set [4] deals with T1, GST-BrERF72. The data set can be described thus: competition; unlabeled mutant vs labeled BrOPR3 probe; LightShift Chemiluminescent EMSA kit, 6% native PAGE; buffer, salt, pH and temperature not stated. The note with it: protein: recombinant; tags: N-terminal GST (pGEX-4T-1); blunt.

T1 sequence (M4CBR0 entry or part of it): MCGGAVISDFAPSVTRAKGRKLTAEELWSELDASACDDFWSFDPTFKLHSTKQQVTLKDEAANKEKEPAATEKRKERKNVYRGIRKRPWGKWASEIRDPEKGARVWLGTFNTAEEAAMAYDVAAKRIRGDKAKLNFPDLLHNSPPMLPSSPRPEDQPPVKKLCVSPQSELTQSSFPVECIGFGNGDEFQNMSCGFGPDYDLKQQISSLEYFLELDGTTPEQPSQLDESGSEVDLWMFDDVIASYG

B1: BrOPR3 promoter probe (dsDNA)
DNA 1: CCTGAACCAATCATAGCCTGGCGGCTAAGTCTTACAGTTGA
DNA 2: TCAACTGTAAGACTTAGCCGCCAGGCTATGATTGGTTCAGG
For B1, the binding result with GST-BrERF72 [1] (blunt) was “binds”.

B2: GCC-box probe (dsDNA)
DNA 1: CATAAGAGCCGCCACTCATAAGAGCCGCCACT
DNA 2: AGTGGCGGCTCTTATGAGTGGCGGCTCTTATG
For B2, the binding result with GST-BrERF72 [1] is on record as “binds”.

B3: BrLOX4 promoter probe (dsDNA)
DNA 1: ACATGTTATATCCGCGCGAAGCGCGGACACCGACTCTAGTTATCAGTAAAAATAAATG
DNA 2: CATTTATTTTTACTGATAACTAGAGTCGGTGTCCGCGCTTCGCGCGGATATAACATGT
Take B3: the binding result with GST-BrERF72 [1] (blunt) was “binds”.

B4: mBrLOX4 promoter probe (dsDNA)
DNA 1: ACATGTTATATCCGCGCGAAGCGCGGACAAAAAATCTAGTTATCAGTAAAAATAAATG
DNA 2: CATTTATTTTTACTGATAACTAGATTTTTTGTCCGCGCTTCGCGCGGATATAACATGT
In the case of B4, the binding result with GST-BrERF72 [2] is “no binding”.

B5: BrAOC3 promoter probe (dsDNA)
DNA 1: ATGTCTTCACTAAAAACACTATACCGACCAGAGTTTTGTAGACATAAATTACGAA
DNA 2: TTCGTAATTTATGTCTACAAAACTCTGGTCGGTATAGTGTTTTTAGTGAAGACAT
Consider B5, for which the binding result in the data set with GST-BrERF72 [1] (blunt) is listed as “binds”.

B6: mBrAOC3 promoter probe (dsDNA)
DNA 1: ATGTCTTCACTAAAAACACTATAAAAAACAGAGTTTTGTAGACATAAATTACGAA
DNA 2: TTCGTAATTTATGTCTACAAAACTCTGTTTTTTATAGTGTTTTTAGTGAAGACAT
Take B6: the binding result with GST-BrERF72 [3] was “no binding”.

B7: DRE/CRT probe (dsDNA)
DNA 1: ATTTCATGGCCGACCTGCTTTCATGGCCGACCTGCTTT
DNA 2: AAAGCAGGTCGGCCATGAAAGCAGGTCGGCCATGAAAT
With B7, the binding result with GST-BrERF72 [1] is reported as “binds”.

B8: mBrOPR3 promoter probe (dsDNA)
DNA 1: CCTGAACCAATCATAGCCTAAAAAATAAGTCTTACAGTTGA
DNA 2: TCAACTGTAAGACTTATTTTTTAGGCTATGATTGGTTCAGG
Turning to B8, in the data set with GST-BrERF72 [4], the binding result is “no binding”.
